{
  "source": "patent US20160058829A1",
  "about": "“ANTI-FIBROTIC PEPTIDES AND THEIR USE IN METHODS FOR TREATING DISEASES AND DISORDERS CHARACTERIZED BY FIBROSIS” (Thrasos Innovation, Inc., priority 2011, published 2016)",
  "molecules": {"B1": {"name": "BMP-7: bone morphogenetic protein-7; recombinant human BMP7, positive control (protein)", "chain": "STGSKQRSQNRSKTPKNQEALRMANVAENSSSDQRQACKKHELYVSFRDLGWQDWIIAPEGYAAYYCEGECAFPLNSYMNATNHAIVQTLVHFINPETVPKPCCAPTQLNAISVLYFDDSSNVILKKYRNMVVRACGCH"}},
  "key": {"[1]": {"target": "T1, Alk-3 (Homo sapiens, UniProt P36894)", "T1 construct": "Highly purified extra-cellular domain (ECD) of Alk-3 or Alk-6 (expressed as a fusion protein with Fc domain) served as a receptor", "T1 sequence (P36894 24-152 limits assumed, species assumed)": "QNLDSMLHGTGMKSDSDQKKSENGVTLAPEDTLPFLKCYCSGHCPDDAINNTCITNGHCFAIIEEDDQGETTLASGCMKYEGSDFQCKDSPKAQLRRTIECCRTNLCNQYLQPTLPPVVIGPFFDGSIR", "test": "Radio-ligand (125I-BMP7) receptor binding assay, Alk-3 ECD", "description": "FIG. 45A-FIG. 45G Pharmacokinetics of THR-123. FIG. 45A. BMP7 structure figure with the residue weights resulting from the analysis mapped on to it. FIG. 45B, FIG. 45C. Radio-ligand receptor binding assays specific for individual type I receptors, Alk-3 (FIG. 45B) and Alk-6 (FIG. 45C). Highly purified extra-cellular domain (ECD) of Alk-3 or Alk-6 (expressed as a fusion protein with Fc domain) served as a receptor. In each assay purified receptor was immobilized on each well and peptide analog or unlabeled BMP7 was added, followed by ^125I-labeled BMP7. Radiolabeled BMP7 complex was counted in an auto-gamma counter. Results were expressed as the mean±s.e.m. […] Concentration of THR-123 in systemic circulation of Wistar rats following iv injection of THR-123 (^125I-Tyr) via the tail vein determined by total radioactivity measurement. […] Six hours after intravenous administration of ^125I labeled-THR-123 in rats at a dose of 6.25 mg/kg-body weight, tissues were harvested and analyzed by automatic gamma well counter. […] Radioactivity of orally administrated ^125I labeled-THR-123 at a dose of 5 mg/kg body weight was localized in the kidney between 1 and 6 hours after administration and peaked at around 3 hours.\nFirst, specific affinity of the extra cellular domains (ECD) of the several type I receptors of BMPs to THR-123 was analyzed. […]"}, "[2]": {"tested_on": "p38 MAPK", "test": "p38 MAPK phosphorylation in HK-2 cells", "assay_type": "cell-based, human", "description": "The significance of p38 MAPK is that this protein is implicated as a non-Smad-dependent pathway for TGF-β-dependent EMT. Other non-Smad-dependent pathways implicated in TGF-β-dependent EMT include RhoA, Ras, PI3 kinase, Notch, and Wnt signaling pathways.\nIt has been shown that regulation p38 MAPK activity by pro-inflammatory factors has implications in fibrosis."}, "[3]": {"tested_on": "UUO animals", "test": "Unilateral ureteral obstruction (UUO), FIG. 33-34", "assay_type": "in vivo", "settings": "for hydroxyproline content (total collagen) of UUO kidneys: 3-fold increase in vehicle-treated UUO kidneys; for expansion of the interstitial space: UUO animals showed 3 fold expansion", "description": "In the animals given BMP-7 or […] Hydroxyproline content, a measure of total collagen, increased 3-fold in the vehicle-treated UUO kidneys compared with sham-operated kidneys. […]"}, "[4]": {"tested_on": "pluripotent mesenchymal stem cells (C3H10T1/2)", "test": "Osteoblastic differentiation of pluripotent stem cells (alkaline phosphatase staining)", "assay_type": "cell-based, Murine", "settings": "BMP-7 2 ug/mL", "description": "Murine pluripotent mesenchymal stem cells (C3H10T1/2) treated with medium alone, BMP-7 or THR-123 were stained for alkaline phosphatase activity, an osteogenic marker. No staining of cells was observed when treated with medium alone (control, panel FIG. 41A) or with THR-123 (panel FIG. 41B). […] Cells were counterstained with hematoxylin."}, "[5]": {"target": "T2, ALK2 (Homo sapiens, UniProt Q04771)", "T2 sequence (Q04771 21-123 limits assumed)": "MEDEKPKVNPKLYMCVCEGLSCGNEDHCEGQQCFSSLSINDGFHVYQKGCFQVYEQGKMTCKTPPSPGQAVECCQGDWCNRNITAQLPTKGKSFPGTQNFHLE", "test": "BMP type I receptor binding, ALK2 ECD", "procedure": "FIG. 31 provides a table indicating a comparison between THR-123 (SEQ ID NO: 1) and BMP-7 for binding to Type I and Type II BMP receptors. Like BMP-7, THR-123 binds to both ALK2 and ALK3 (type I) and BMPR-II (type II) BMP receptors. However, BMP-7, but not THR-123 binds to ALK6 (type I) receptor.\nFirst, specific affinity of the extra cellular domains (ECD) of the several type I receptors of BMPs to THR-123 was analyzed. Binding of cold BMP7 to immobilized receptor ECDs was determined by competition with ^125I-labeled BMP7 and analyzed by Scatchard analysis to determine effective dissociation constants of BMP7 for each of the receptor ECDs. To obtain an estimate of the effective dissociation constant of THR-123 for a particular receptor ECD, the dissociation constant for cold BMP7 was multiplied by the ratio of the ED50 of THR-123 to the ED50 for cold BMP7."}, "[6]": {"tested_on": "NP-1 cells", "test": "TGF-β-induced EMT in NP-1 cells (inhibition and reversal)", "assay_type": "cell-based", "settings": "for TGF-β-induced E-cadherin loss (co-incubation): 48 h; for TGF-β-induced E-cadherin loss (co-incubation) / TGF-β-induced EMT, cell shape (co-incubation): BMP-7 1 μg/ml, THR-123 10 μM; for E-cadherin expression in TGF-β-incubated cells (reversal) / percentage of cells that regained epithelial characteristics (length to width ratio): NP-1 cells; for TGF-β-induced EMT, cell shape (co-incubation): TGF-β 3 ng/ml with EGF 48 h; for percentage of cells that regained epithelial characteristics (length to width ratio): reversal experiment", "procedure": "FIG. 51A-FIG. 51J THR-123 inhibits epithelial-mesenchymal transition in NP-1 cells. FIG. 51A-FIG. 51E: Bright field image. […] F-J. E-cadherin immunofluorescence labeling. NP-1 cells expressed E-cadherin in cell border (FIG. 51F). […] Representative results are shown.\nFIG. 53A-FIG. 53L Reversal of EMT by THR-123 in NP-1 cells A-E: Inverted microscopic pictures. FIG. 53A. Basal polygonal epithelial nature of NP1 cells. FIG. 53B. […] FIG. 53C, FIG. 53D. BMP 7 (1 μg/ml) (FIG. 53C) or THR-123 (10 μM) (FIG. 53D) were added to mesenchymal like cells induced by TGF-β and EGF for the additional 48 hrs. […] FIG. 53E. […] FIG. 53F. Ratio of length to width was calculated in reversal experiment. Five representative pictures of the cells in different areas of the well, were taken by using the inverted microscope. A total of 100 cells were analyzed (20 cells per picture). […] The data are presented mean+s.e.m. in the graph. FIG. 53G. […] Mean plus one SD was estimated as epithelial characteristics and the percentage of epithelial characteristics in each experimental setting were estimated. 18% of BMP7 and 24% of THR-123 treated NP-1 cells regained epithelial characteristics. FIG. 53H-FIG. 53L. Immunofluorescence picture for E-cadherin. TGF-β incubation decreased E-cadherin levels when compare to untreated cells (FIG. 53H, FIG. 53I). […] Representative results from three independent experiments are shown.\nEMT was induced in NP1 cells or MCT cells by incubation with 3 ng/ml recombinant human […] for 48 h. When EMT occurred, the medium was removed and replaced with THR-123 (10 μM) or recombinant human BMP7 (100 ng/ml) in DMEM. After 48 h, the cells were characterized by immunocytochemistry using primary monoclonal antibodies to E-cadherin ([…]) and rhodamine-conjugated secondary antibodies (Jackson Immunoresearch, West Grove, Pa.) as previously described. The staining was visualized by fluorescence microscopy and documented representative pictures using Spot advanced software (Carl Zeiss, Oberkochen, Germany). Also protein and total RNA were harvested at the end of experiment. For the morphometric analysis for EMT, length/width of cells in bright field pictures are measured by image J software. The ratio of length/width was calculated."}},
  "note": "Entries after “also recorded” stand apart in the source; their conditions may differ. Like-named read-outs stand apart in the source and are kept apart here. Positions of bridges follow the written chain, without caps; N, C: chain ends.",
  "data": [
    {"molecule": "(H)-CYFDDSSNVLCKKYRS-(OH) (H-CYFDDSSNVLCKKYRS-OH; disulfide 1-11; SMILES CC(C)C[C@@H]1NC(=O)[C@H](C(C)C)NC(=O)[C@H](CC(N)=O)NC(=O)[C@H](CO)NC(=O)[C@H](CO)NC(=O)[C@H](CC(=O)O)NC(=O)[C@H](CC(=O)O)NC(=O)[C@H](Cc2ccccc2)NC(=O)[C@H](Cc2ccc(O)cc2)NC(=O)[C@@H](N)CSSC[C@@H](C(=O)N[C@@H](CCCCN)C(=O)N[C@@H](CCCCN)C(=O)N[C@@H](Cc2ccc(O)cc2)C(=O)N[C@@H](CCCNC(=N)N)C(=O)N[C@@H](CO)C(=O)O)NC1=O) [SEQ ID NO: 1]", "values": [
      {"measurement": "binding to ALK3 (competition with 125I-BMP7)", "setting": "[1]; listed as THR-123", "result": "competes with BMP7; also recorded: binds"},
      {"measurement": "TNF alpha induced p38 phosphorylation", "setting": "[2]; HK-2 cells", "result": "effectively inhibited"},
      {"measurement": "basal p38 phosphorylation", "setting": "[2]; HK-2 cells", "result": "effectively inhibited"},
      {"measurement": "potency on p38 phosphorylation relative to SB 203580", "setting": "[2]; THR-123 1 uM versus specific inhibitor 10 uM", "result": "as potent as 10 uM of the specific inhibitor"},
      {"measurement": "hydroxyproline content (total collagen) of UUO kidneys", "setting": "[3]", "result": "effectively decreased"},
      {"measurement": "expansion of the interstitial space", "setting": "[3]", "result": "significantly reduced"},
      {"measurement": "osteoblastic differentiation (alkaline phosphatase staining)", "setting": "[4]", "result": "failed to induce osteoblastic differentiation"},
      {"measurement": "binding to ALK2", "setting": "[5]; listed as THR-123", "result": "to a small extent; also recorded: binds"},
      {"measurement": "TGF-β-induced E-cadherin loss (co-incubation)", "setting": "[6]", "result": "prevents E-cadherin loss"},
      {"measurement": "E-cadherin expression in TGF-β-incubated cells (reversal)", "setting": "[6]", "result": "reversed E-cadherin expression"},
      {"measurement": "TGF-β-induced EMT, cell shape (co-incubation)", "setting": "[6]", "result": "prevents these phenotypic changes"},
      {"measurement": "percentage of cells that regained epithelial characteristics (length to width ratio)", "setting": "[6]", "result": 24, "unit": "%"}
    ]},
    {"molecule": "B1", "values": [
      {"measurement": "binding to ALK3 (competition with 125I-BMP7)", "setting": "[1]", "result": "binds"},
      {"measurement": "basal p38 phosphorylation", "setting": "[2]; HK-2 cells", "result": "inhibited p38 phosphorylation"},
      {"measurement": "hydroxyproline content (total collagen) of UUO kidneys", "setting": "[3]", "result": "effectively decreased"},
      {"measurement": "expansion of the interstitial space", "setting": "[3]", "result": "significantly reduced"},
      {"measurement": "osteoblastic differentiation (alkaline phosphatase staining)", "setting": "[4]", "result": "induced osteoblastic differentiation"},
      {"measurement": "binding to ALK2", "setting": "[5]", "result": "binds"},
      {"measurement": "TGF-β-induced E-cadherin loss (co-incubation)", "setting": "[6]", "result": "prevents E-cadherin loss"},
      {"measurement": "E-cadherin expression in TGF-β-incubated cells (reversal)", "setting": "[6]", "result": "reversed E-cadherin expression"},
      {"measurement": "TGF-β-induced EMT, cell shape (co-incubation)", "setting": "[6]", "result": "prevents these phenotypic changes"},
      {"measurement": "percentage of cells that regained epithelial characteristics (length to width ratio)", "setting": "[6]", "result": 18, "unit": "%"}
    ]}
  ]
}
